Results from US20180282409A1 (Hoffmann-La Roche, published 2018).

T1: extracellular domain of recombinant human CD19 receptor (human, UniProt P15391 20-291)
T1 construct: extracellular domain; also called recombinant human CD19 ECD
T1 sequence (looked up): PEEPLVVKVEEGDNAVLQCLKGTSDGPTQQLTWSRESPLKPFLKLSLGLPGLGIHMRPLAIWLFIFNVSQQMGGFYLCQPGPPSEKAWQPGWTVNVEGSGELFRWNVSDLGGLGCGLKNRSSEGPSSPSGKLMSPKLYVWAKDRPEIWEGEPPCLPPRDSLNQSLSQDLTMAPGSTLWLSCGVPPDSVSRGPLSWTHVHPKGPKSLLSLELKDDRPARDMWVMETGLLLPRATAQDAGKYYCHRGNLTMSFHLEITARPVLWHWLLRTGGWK

T2: cynomolgus monkey CD19 extracellular domain (ECD) fused to the human PSCA GPI anchor sequence, on transfected … (cynomolgus monkey; human)
T2 construct: Presented on the surface of transiently transfected HEK293 cells; its processing in the cell is not described; also called cynomolgus CD19-ECD; cyCD19 ECD
T2 chain: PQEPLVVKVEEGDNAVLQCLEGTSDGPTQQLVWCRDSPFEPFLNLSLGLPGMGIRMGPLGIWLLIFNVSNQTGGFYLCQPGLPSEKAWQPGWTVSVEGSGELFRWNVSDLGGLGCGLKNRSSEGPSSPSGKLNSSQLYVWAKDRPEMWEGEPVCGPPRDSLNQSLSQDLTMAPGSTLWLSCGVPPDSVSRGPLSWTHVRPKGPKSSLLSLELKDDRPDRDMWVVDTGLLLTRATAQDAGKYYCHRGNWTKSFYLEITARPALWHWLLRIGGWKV


How the values were obtained:
[1] = target: T1, extracellular domain of recombinant …; test: SPR (BIAcore), half-life of the complex
[2] = target: T2, cynomolgus monkey CD19 extracellular …; test: flow cytometry on HEK293 cells presenting cynomolgus CD19 ECD by GPI anchor
Procedure: HEK293 cells were transfected with 1 μg of plasmid DNA per 1.5×10⁶ cells using LipofectAmine 2000 and incubated thereafter for 48 hours at 37° C. […] GWKV; SEQ ID NO: 31) extracellular domain (ECD) fused to the human PSCA GPI anchor sequence ([…] WGPGQL; SEQ ID NO: 32) for extracellular presentation. […] The starting concentration of the antibodies was set to 60 μg/mL (2× final concentration) and then diluted in a 1:3 (v/v) titration series. The primary antibody was incubated on the cells for one hour at room temperature, followed by two wash steps. For secondary detection, anti-huIgG (H+L) antibody conjugated to Alexa488 in a concentration of 30 μg/mL was used.

Binder	t1/2 [1]	EC50 [2]
humanized anti-human CD19 antibody var.5:S27eP (antibody, V domains shown, also called variant 5 (S27eP); variant 5) VH: QVQLVQSGAEVKKPGASVKVSCKASGYTFTDYIMHWVRQAPGQGLEWMGYINPYNDGSKYTEKFQGRVTMTSDTSISTAYMELSRLRSDDTAVYYCARGTYYYGSALFDYWGQGTTVTVSS VL: DIVMTQTPLSLSVTPGQPASISCKSSQSLENPNGNTYLNWYLQKPGQSPQLLIYRVSKRFSGVPDRFSGSGSGTDFTLKISRVEAEDVGVYYCLQLTHVPYTFGQGTKLEIK	43.6 min	
humanized anti-human CD19 antibody var.9:S27eP/N28S (antibody, V domains shown, also called variant 9 (S27eP/N28S); variant 9) VH: QVQLVQSGAEVKKPGASVKVSCKASGYTFTDYIMHWVRQAPGQGLEWMGYINPYNDGSKYTEKFQGRVTMTSDTSISTAYMELSRLRSDDTAVYYCARGTYYYGSALFDYWGQGTTVTVSS VL: DIVMTQTPLSLSVTPGQPASISCKSSQSLENPSGNTYLNWYLQKPGQSPQLLIYRVSKRFSGVPDRFSGSGSGTDFTLKISRVEAEDVGVYYCLQLTHVPYTFGQGTKLEIK	4 min	
wild-type humanized anti-human CD19 antibody (var.0: wt) (antibody, V domains shown, it was detected with anti-human IgG and captured with anti-human Fab; also called variant 0: wt; humanized wild-type antibody) VH: EVQLQQSGPELVKPGASVKMACKASGYTFTDYIMHWVKQKTGQGLEWIGYINPYNDGSKYTEKFNGKATLTSDKSSITAYMELSSLTSEDSAVYYCARGTYYYGSALFDYWGQGTTLTVSS VL: DAVMTQTPLSLPVSLGDQASISCRSSQSLENSNGNTYLNWYLQKPGQSPQLLIYRVSKRFSGVLDRFSGSGSGTDFTLKISRVEAEDLGVYFCLQLTHVPYTFGGGTKLEIK		0.313 µg/mL
